# Ends that are not written are not given here.
# T1: p38 protein (product of the human gene JTV1) fused to the transactivating domain of GAL4, from library … (yeast; human, UniProt Q13155 1-320, limits assumed)
# T1 construct: also called plasmid isolated during the screening of the two-hybrid library; fragment corresponding to the p38 protein
# T1 sequence: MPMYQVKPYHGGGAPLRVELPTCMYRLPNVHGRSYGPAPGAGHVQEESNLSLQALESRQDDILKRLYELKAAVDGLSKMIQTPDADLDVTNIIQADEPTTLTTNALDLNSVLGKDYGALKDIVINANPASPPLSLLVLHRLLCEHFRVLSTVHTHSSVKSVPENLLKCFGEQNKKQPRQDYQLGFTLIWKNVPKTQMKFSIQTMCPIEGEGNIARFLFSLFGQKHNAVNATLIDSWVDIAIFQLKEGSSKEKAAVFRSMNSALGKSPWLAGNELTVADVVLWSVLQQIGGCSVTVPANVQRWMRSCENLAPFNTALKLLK
# B1: cytoplasmic domain of the APP protein fused to LexA, expressed from pLex9-cAPP (other, UniProt P05067 723-770, looked up)
# chain: LKKKQYTSIHHGVVEVDAAVTPEERHLSKMQQNGYENPTYKFFEQMQN
# modifications: also: fused to LexA
# notes: domain: cytoplasmic domain; Control bait in the two-hybrid specificity test; also called pLex-cAPP; not shown: bacterial repressor LexA as encoded by vector pLex9 (pBTM116)
# Assays:
# [1] = target: p38 protein fused with an N-terminal myc epitope, expressed from pcDNA3-myc-P38 (human) (UniProt Q13155); test: cell-based or functional assay
# [2] = target: T1, p38 protein (product of the human gene …); test: yeast two-hybrid, b-Gal activity assay in strain L40
# Description: A sheet of nitrocellulose is pre-placed on the Petri dish containing the separated yeast clones. This sheet is then immersed in liquid nitrogen for 30 seconds in order to rupture the yeasts and thus to release the b-galactosidase activity. After thawing, the sheet of nitrocellulose is placed, colonies facing upwards, in another Petri dish containing a Whatman paper presoaked in 1.5 ml of PBS solution (60 mM Na2HPO4, 40 mM NaH2PO4, 10 mM KCl, 1 mM MgSO4, pH 7) containing 15 μl of X-Gal (5-bromo-4-chloro-3-indolyl-b-D-galactoside) containing 40 mg/ml of N,N-dimethylformamide. The dish is then placed in an incubator at 37° C. The assay is deemed positive when the colonies on the membrane turn blue after 12 hours.
# In order to determine the specificity of interaction between the fragment corresponding to the p38 protein and the central region of parkin, we carried out a two-hybrid test for specific interaction with other, non-relevant proteins. To carry out this test, we transformed the L40 strain with the control plasmids plex9-cAPP or pLex9-HaRasVal12 in place of the plasmid pLex9-Parkin (135-290), encoding, respectively, the cytoplasmic domain of APP or the HaRasVal12 protein, which are fused to the DNA-binding domain of LexA and with the plasmid isolated during the screening of the two-hybrid library. […]
Molecule,proportion of transfected cells exhibiting p38 aggregates [1] [%],binding result [2]
human parkin stably overexpressed in the SH-SY5Y-VI clone (from UniProt O60260 1-465) (enzyme),8,
B1,,no binding
